The values below come from US20160084825A1.

Values joined by “and” are separate entries in the source; they are usually repeats but may differ in a detail not shown here. Equal entries are not always repeated.

For experiment [1], the target named is wild-type LFA-1 (αLβ2) on 293T cells (UniProt P20701). In words: flow cytometry (FACS), LFA-1 on transfected 293T cells; the reference itself. On the technique in general: A flow cytometer gives signals particle by particle.
Experiment [2] deals with LFA-1 disulfide mutant #3 (αL K1062C / β2 G676C) on 293T cells (UniProt P20701). Put plainly: flow cytometry (FACS), LFA-1 on transfected 293T cells; reference wild-type LFA-1.
Chain of LFA-1 disulfide mutant #3 (αL K1062C / β2 G676C) on 293T cells (P20701 26-1170 K1087C, chain 1 of 2): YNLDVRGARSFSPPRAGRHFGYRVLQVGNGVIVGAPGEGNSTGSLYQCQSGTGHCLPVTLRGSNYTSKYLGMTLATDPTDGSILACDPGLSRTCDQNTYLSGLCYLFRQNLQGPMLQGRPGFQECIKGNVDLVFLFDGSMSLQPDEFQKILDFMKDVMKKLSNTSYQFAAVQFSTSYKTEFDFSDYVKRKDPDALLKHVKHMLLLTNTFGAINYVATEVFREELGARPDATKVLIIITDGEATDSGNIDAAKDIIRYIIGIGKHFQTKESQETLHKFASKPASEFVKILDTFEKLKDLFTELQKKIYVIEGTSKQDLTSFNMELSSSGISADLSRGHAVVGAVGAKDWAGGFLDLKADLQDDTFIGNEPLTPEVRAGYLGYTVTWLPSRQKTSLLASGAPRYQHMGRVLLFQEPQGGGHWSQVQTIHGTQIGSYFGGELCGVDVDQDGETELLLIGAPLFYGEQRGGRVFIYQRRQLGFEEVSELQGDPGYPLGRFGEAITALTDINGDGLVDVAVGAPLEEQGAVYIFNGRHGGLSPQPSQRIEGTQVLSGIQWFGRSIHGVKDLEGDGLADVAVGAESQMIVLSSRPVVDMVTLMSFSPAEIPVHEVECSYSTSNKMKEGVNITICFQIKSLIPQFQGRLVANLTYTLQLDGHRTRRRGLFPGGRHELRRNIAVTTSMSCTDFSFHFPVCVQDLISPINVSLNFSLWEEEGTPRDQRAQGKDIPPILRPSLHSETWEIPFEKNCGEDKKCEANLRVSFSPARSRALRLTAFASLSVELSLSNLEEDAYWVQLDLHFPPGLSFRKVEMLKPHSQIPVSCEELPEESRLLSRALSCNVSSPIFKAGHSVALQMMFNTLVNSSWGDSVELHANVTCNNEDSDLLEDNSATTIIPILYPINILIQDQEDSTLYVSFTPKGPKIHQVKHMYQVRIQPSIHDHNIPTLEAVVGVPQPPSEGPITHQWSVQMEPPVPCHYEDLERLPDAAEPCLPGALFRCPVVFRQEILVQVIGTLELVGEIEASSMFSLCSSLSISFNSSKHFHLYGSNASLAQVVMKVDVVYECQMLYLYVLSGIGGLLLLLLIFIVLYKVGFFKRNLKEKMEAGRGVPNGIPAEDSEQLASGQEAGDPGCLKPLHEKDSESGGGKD
Chain of LFA-1 disulfide mutant #3 (αL K1062C / β2 G676C) on 293T cells (P05107 23-769 G698C, chain 2 of 2, further chain): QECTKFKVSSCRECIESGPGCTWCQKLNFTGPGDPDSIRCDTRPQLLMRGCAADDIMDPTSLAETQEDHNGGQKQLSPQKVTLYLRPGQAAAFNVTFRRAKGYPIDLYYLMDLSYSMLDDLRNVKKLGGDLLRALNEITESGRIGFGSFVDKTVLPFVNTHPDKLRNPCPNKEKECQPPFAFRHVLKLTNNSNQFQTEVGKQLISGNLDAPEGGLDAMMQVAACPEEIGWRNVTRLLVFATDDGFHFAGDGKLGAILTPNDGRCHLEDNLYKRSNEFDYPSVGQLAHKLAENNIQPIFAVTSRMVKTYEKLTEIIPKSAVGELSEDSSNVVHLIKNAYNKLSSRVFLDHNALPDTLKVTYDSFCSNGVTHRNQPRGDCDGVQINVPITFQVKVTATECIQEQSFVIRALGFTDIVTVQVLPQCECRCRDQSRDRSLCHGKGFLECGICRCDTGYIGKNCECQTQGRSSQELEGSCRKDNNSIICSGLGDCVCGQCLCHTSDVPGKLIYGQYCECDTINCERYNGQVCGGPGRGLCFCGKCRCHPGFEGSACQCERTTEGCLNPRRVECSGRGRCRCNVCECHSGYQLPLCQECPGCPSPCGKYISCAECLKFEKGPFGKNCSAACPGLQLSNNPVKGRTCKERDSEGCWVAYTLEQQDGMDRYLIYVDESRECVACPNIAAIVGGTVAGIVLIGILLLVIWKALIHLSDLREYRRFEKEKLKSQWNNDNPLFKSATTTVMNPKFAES
Experiment [3] addresses LFA-1 disulfide mutant #8 (αL Q1063C / β2 N678C) on 293T cells (UniProt P20701). Described as above.
Experiment [4] concerns the target LFA-1 disulfide mutant #4 (αL Q1063C / β2 G676C) on 293T cells (UniProt P20701). The description is as above.
The target in experiment [5] is LFA-1 disulfide mutant #5 (αL K1062C / β2 P677C) on 293T cells (UniProt P20701). The description is as above.
Chain of LFA-1 disulfide mutant #5 (αL K1062C / β2 P677C) on 293T cells (P20701 26-1170 K1087C, chain 1 of 2): as the sequence (P20701 26-1170 K1087C, chain 1 of 2) above
Chain of LFA-1 disulfide mutant #5 (αL K1062C / β2 P677C) on 293T cells (P05107 23-769 P699C, chain 2 of 2, further chain): as the sequence (P05107 23-769 G698C, chain 2 of 2, further chain) above, with C676G, P677C counted along it
The target in experiment [6] is LFA-1 disulfide mutant #2 (αL E1061C / β2 G676C) on 293T cells (UniProt P20701). The experiment is described as above.
Chain of LFA-1 disulfide mutant #2 (αL E1061C / β2 G676C) on 293T cells (P20701 26-1170 E1086C, chain 1 of 2): as the sequence (P20701 26-1170 K1087C, chain 1 of 2) above, with E1061C, C1062K counted along it
Chain of LFA-1 disulfide mutant #2 (αL E1061C / β2 G676C) on 293T cells (P05107 23-769 G698C, chain 2 of 2, further chain): as the sequence (P05107 23-769 G698C, chain 2 of 2, further chain) above
Experiment [7] addresses LFA-1 disulfide mutant #7 (αL M1064C / β2 P677C) on 293T cells (UniProt P20701). The description is as above.
The target in experiment [8] is LFA-1 disulfide mutant #6 (αL Q1063C / β2 P677C) on 293T cells (UniProt P20701). Described as above.
Chain of LFA-1 disulfide mutant #6 (αL Q1063C / β2 P677C) on 293T cells (P20701 26-1170 Q1088C, chain 1 of 2): as the sequence (P20701 26-1170 K1087C, chain 1 of 2) above, with C1062K, Q1063C counted along it
Chain of LFA-1 disulfide mutant #6 (αL Q1063C / β2 P677C) on 293T cells (P05107 23-769 P699C, chain 2 of 2, further chain): as the sequence (P05107 23-769 G698C, chain 2 of 2, further chain) above, with C676G, P677C counted along it
Experiment [9] concerns the target LFA-1 disulfide mutant #9 (αL M1064C / β2 N678C) on 293T cells (UniProt P20701). The description is as above.
Experiment [10] has as its target wild-type LFA-1 (αLβ2) on 293T cells (UniProt P20701). In words: flow cytometry (FACS), LFA-1 on transfected 293T cells.
In experiment [11] the target is LFA-1 disulfide mutant #3 (αL K1062C / β2 G676C) on 293T cells (UniProt P20701). Described as above.
Experiment [12] concerns the target LFA-1 disulfide mutant #8 (αL Q1063C / β2 N678C) on 293T cells (UniProt P20701). The description is as above.
Experiment [13] addresses LFA-1 disulfide mutant #4 (αL Q1063C / β2 G676C) on 293T cells (UniProt P20701). The experiment is described as above.
Experiment [14] addresses LFA-1 disulfide mutant #5 (αL K1062C / β2 P677C) on 293T cells (UniProt P20701). Described as above.
Experiment [15] has as its target LFA-1 disulfide mutant #2 (αL E1061C / β2 G676C) on 293T cells (UniProt P20701). The experiment is described as above.
Experiment [16] addresses LFA-1 disulfide mutant #7 (αL M1064C / β2 P677C) on 293T cells (UniProt P20701). The experiment is described as above.
For experiment [17], the target named is LFA-1 disulfide mutant #6 (αL Q1063C / β2 P677C) on 293T cells (UniProt P20701). The experiment is described as above.
Experiment [18] deals with LFA-1 disulfide mutant #9 (αL M1064C / β2 N678C) on 293T cells (UniProt P20701). Described as above.
Chain of LFA-1 disulfide mutant #9 (αL M1064C / β2 N678C) on 293T cells (P20701 26-1170 M1089C, chain 1 of 2): as the sequence (P20701 26-1170 K1087C, chain 1 of 2) above, with C1062K, M1064C counted along it
Chain of LFA-1 disulfide mutant #9 (αL M1064C / β2 N678C) on 293T cells (P05107 23-769 N700C, chain 2 of 2, further chain): as the sequence (P05107 23-769 G698C, chain 2 of 2, further chain) above, with C676G, N678C counted along it

Chain of LFA-1 disulfide mutant #7 (αL M1064C / β2 P677C) on 293T cells (P20701 26-1170 M1089C, chain 1 of 2): as the sequence (P20701 26-1170 K1087C, chain 1 of 2) above, with C1062K, M1064C counted along it
Chain of LFA-1 disulfide mutant #7 (αL M1064C / β2 P677C) on 293T cells (P05107 23-769 P699C, chain 2 of 2, further chain): as the sequence (P05107 23-769 G698C, chain 2 of 2, further chain) above, with C676G, P677C counted along it
Chain of LFA-1 disulfide mutant #4 (αL Q1063C / β2 G676C) on 293T cells (P20701 26-1170 Q1088C, chain 1 of 2): as the sequence (P20701 26-1170 K1087C, chain 1 of 2) above, with C1062K, Q1063C counted along it
Chain of LFA-1 disulfide mutant #4 (αL Q1063C / β2 G676C) on 293T cells (P05107 23-769 G698C, chain 2 of 2, further chain): as the sequence (P05107 23-769 G698C, chain 2 of 2, further chain) above
Chain of LFA-1 disulfide mutant #8 (αL Q1063C / β2 N678C) on 293T cells (P20701 26-1170 Q1088C, chain 1 of 2): as the sequence (P20701 26-1170 K1087C, chain 1 of 2) above, with C1062K, Q1063C counted along it
Chain of LFA-1 disulfide mutant #8 (αL Q1063C / β2 N678C) on 293T cells (P05107 23-769 N700C, chain 2 of 2, further chain): as the sequence (P05107 23-769 G698C, chain 2 of 2, further chain) above, with C676G, N678C counted along it
Chain of wild-type LFA-1 (αLβ2) on 293T cells (P20701 26-1170 limits assumed, chain 1 of 2): as the sequence (P20701 26-1170 K1087C, chain 1 of 2) above, with C1062K counted along it
Chain of wild-type LFA-1 (αLβ2) on 293T cells (P05107 23-769 limits assumed, chain 2 of 2, further chain): as the sequence (P05107 23-769 G698C, chain 2 of 2, further chain) above, with C676G counted along it

For the substance KIM127 (antibody), the normalized mean relative to wild-type (WT is set to 1.0) in experiment [1] was 1; in [2], 1.12 and 1.69; in [3], 0.61 and 1.49; in [4], 1.69 and 1.35; in experiment [5] it was 1.03 and 0.73; in experiment [6] it was 0.46 and 0.81. Also, the normalized mean relative to wild-type (WT is set to 1.0) was 0.95 and 0.96 in experiment [7]; 1.06 and 1.47 in experiment [8]; 0.66 and 0.85 in [9]. The Mean (FACS mean fluorescence) in experiment [10] was 12.2 and 13.9; in experiment [11], 11.1 and 15.8; in [12], 8.54 and 12.2; in experiment [13] it was 12.1 and 12.2; in experiment [14], 10.3 and 9.36; in experiment [15] it was 8.27 and 9.59. The Mean (FACS mean fluorescence) in [16] is 10.8 and 11.8; in [17] it was 10.9 and 14.4; in experiment [18] it was 10 and 12.1. For the same substance, the Mean value normalized with expression level (MHM24) in experiment [10] was 0.035 and 0.055; in [11] it was 0.039 and 0.093; in experiment [13], 0.06 and 0.074; in experiment [14] it was 0.036 and 0.04; in experiment [15] it was 0.016 and 0.044; in experiment [16], 0.033 and 0.053. In addition, the Mean value normalized with expression level (MHM24) in [17] is 0.037 and 0.08; in [18] it was 0.023 and 0.047.
Take MHM24 (antibody): the Mean (FACS mean fluorescence) in experiment [11] came to 117; in [12] it was 88.5; in [13], 95.9; in [14] it was 102; in [15] it was 97.4; in experiment [16], 126. The Mean (FACS mean fluorescence) worked out at 117 in [17] and 147 in experiment [18].
X63 (antibody): the Mean (FACS mean fluorescence) in experiment [10] turned out to be 5.96; in experiment [18] it was 4.06.
For m24 (antibody), the normalized mean relative to wild-type (WT is set to 1.0) was found to be 1 in [1]; 1.17 in [2]; 1 in experiment [3]; 1.18 in experiment [4]; 0.99 in [5]; 0.83 in [6]. In addition, the normalized mean relative to wild-type (WT is set to 1.0) in experiment [7] came to 0.99; in [8] it was 1.06; in experiment [9], 0.92. The Mean (FACS mean fluorescence) in [10] was found to be 66.3; in experiment [11], 57.4; in [12] it was 38.6; in [13] it was 47.8; in experiment [14], 43.5; in experiment [15] it was 35.8. Besides, the Mean (FACS mean fluorescence) in experiment [16] came to 53; in experiment [17] it was 52.3; in experiment [18], 57.1. In addition, the Mean value normalized with expression level (MHM24) amounted to 0.39 in experiment [10]; 0.46 in [11]; 0.4 in experiment [12]; 0.46 in [13]; 0.39 in [14]; 0.33 in experiment [15]. For the same substance, the Mean value normalized with expression level (MHM24) in experiment [16] came out at 0.39; in experiment [17], 0.42; in experiment [18] it was 0.36.
